Molecular target: ENLARGED VESSEL ELEMENT (EVE) homolog of Physcomitrella patens (Physcomitrella patens)
Assay: SEC-MALS

stoichiometry N: 5
Sequence: ENLARGED VESSEL ELEMENT (EVE) homolog of Physcomitrella patens (natural protein)
